The values that follow come from PMC3913756, “Mycobacterium tuberculosis Cyclophilin A Uses Novel Signal Sequence for Secretion and Mimics Eukaryotic Cyclophilins for Interaction with Host Protein Repertoire” (PLoS ONE, 2014).

The experiment has as its target T1, His6-tagged M. tuberculosis PpiA (cyclophilin A) (Mycobacterium tuberculosis H37Rv, UniProt P9WHW3 1-182).
T1 construct: also called Rv0009; MTBPPIA
As to the kind of experiment: native gel or EMSA. Conditions: both partners purified. (In general: A gel shift assay detects complexes by their altered migration in electrophoresis.)

B1: purified M. tuberculosis Ef-Tu (Tuf) (natural protein)
chain: not shown
Consider B1, for which the binding result was “binds”.
